The supplement of paper PMC10567573

B1: TMEM106C (parent)
chain: YVTTNVSLIPPRSEQLVNFTGKAE

Variants of: B1
Test: protein stability index of a GFP-peptide fusion (GPS, HEK-293T) (PSI 1-6); higher = more stable
Details: c terminus: a fixed tail appended
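Further: lentivirally expressed fusions sorted by FACS into six bins by GFP to DsRed ratio, PSI derived from sequencing read proportions per bin multiplied by bin number.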

Protein stability index of substitutions, site by site:
T20: I 2.08; S 1.51; V 1.84; E 2.09; H 1.86; D 1.95; P 2.29; K 2.11; L 1.99; M 3.02; R 2.19; Q 1.66; Y 2.86; G 2.13; A 2.27; N 1.53; C 2.34; W 2.85; F 2.31
L16: Q 1.92; V 1.34; H 1.49; E 2.1; R 1.95; M 2.02; I 2.23; G 1.81; C 2.16; F 1.88; D 2.05; Y 1.73; N 1.66; W 2.26; A 2.14; S 1.91; T 1.79; P 2.55; K 1.9
A23: P 1.77; I 2.24; H 2.47; T 1.8; E 1.65; K 2.23; F 2.06; G 1.91; C 1.84; L 1.31; S 1.54; D 2; Q 1.74; N 1.82; M 1.81; R 2.4
G21: K 1.59; R 2.32; E 2.49; W 2.5; T 1.86; S 1.6; L 1.58; M 3.92; I 2.1; D 2.71; P 3.07; A 1.99; C 1.83; Q 2.3; V 2.12; N 2.75; Y 3.28; F 2.77; H 2.1
K22: F 2.26; Y 1.61; I 1.88; V 2.81; E 1.78; A 2.23; L 1.96; S 1.72; W 3.19; N 2.04; C 2.1; Q 1.53; M 2.54; T 2.14; P 1.76; H 1.96; R 1.8; G 1.89; D 2.08
Q15: F 1.5; R 1.74; D 2.08; H 2.33; S 1.96; W 1.86; K 1.43; A 1.5; C 2.24; L 2.69; G 2.37; I 2.37; M 1.7; V 2.17; T 2.23; Y 2.69; P 2.28; E 2.07; N 1.55
V17: A 1.84; Y 2.44; N 1.62; R 1.41; T 1.91; D 2.2; G 1.98; P 2.31; I 2.24; E 2.24; H 2.1; K 2.83; W 3.01; F 2.88; Q 3.85; M 2.04; S 1.55; L 2.3; C 2.19
N18: P 2.4; T 1.62; V 1.81; M 2.37; G 1.7; F 2.28; D 3.25; A 2.02; Q 2.07; W 3.06; C 1.95; E 1.3; K 2.71; L 2.14; H 2.38; I 3.13; R 2.33; S 2.36
F19: D 2.01; K 2.25; A 2.03; T 2.65; L 1.96; C 2.06; R 1.68; S 2.71; M 1.9; Y 1.9; G 1.39; N 2; Q 2.54; W 2.33; I 2.02; E 2.7; P 2.03; V 2.28; H 2.56
